Source: the supplement of paper PMC9170038

Tested on: MS2 coat protein
Experiment: apparent KD of MS2 coat protein; designed switch direction (-1 OFF switch, 1 ON switch): 1; higher = weaker reporter binding
In short: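 An oligonucleotide input, 200 uM small-molecule ligand, or no input was present during titration of SNAP-549-labelled MS2 coat protein, which was doubled from 0.7 or 1.5 nM to 3 µM. Designed RNA switches had been transcribed on Illumina chips by stalled E. coli RNA polymerase. Apparent KD per design is the median over clusters of curves fitted to normalised cluster fluorescence.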

[1] = Eterna round: R95, input ligand: FMN 200 uM
[2] = Eterna round: R95, input ligand: microRNA oligo, concentration not stated
[3] = Eterna round: R95, input ligand: none
[4] = input ligand: microRNA oligo, concentration not stated

Sequence | apparent KD of MS2 coat protein [1] | apparent KD of MS2 coat protein [2] | apparent KD of MS2 coat protein [3] | apparent KD of MS2 coat protein (input ligand: FMN 200 uM) | apparent KD of MS2 coat protein [4] | apparent KD of MS2 coat protein (input ligand: none)
UGUAAACAUGAGGAUCACCCAUGUAAUAAUAUGGGAGGAUAUGGGAAUUAAUUAAUUAAACCAGAAGGCCUAAUGU [Mat - Same State 1 - D88] (puzzle: Same State 1) | 30.9 nM | 388 nM | 280 nM | – | – | –
CCGGGUAAUGGAGGAUAUGGAGCCUUAUUGGCUCCAGAAGGCUAACAUGAGGAUCACCCAUGUAGUCCGGCGGUCAAUAGACCG [Eli NG1ss - 66] (Eterna round: R96, puzzle: Same State NG 1) | – | – | – | 10.5 nM | 13.2 nM | 19.2 nM
AUACUCAUGUAAGGAUAUGCAGCCGAAACGGCUGCAGAAGGUACUAUAAUACAUGAGGAUCACCCAUGUCAAAAUUAUUUAGUU [Mat - Same State NG 1 - JL mod - D99] (Eterna round: R96, puzzle: Same State NG 1) | – | – | – | 19.5 nM | 21.9 nM | 22.3 nM
GAGAGACAUGAGGAUCACCCAUGUAGAAUAGAACAAGGAUAUGUGGAAGGCGGAGGAGAGACAGAAGGUGUAGGAA [JR_SS1_Sub054] (puzzle: Same State 1) | 62.5 nM | 76.8 nM | 84.9 nM | – | – | –
GGUGGGUUACUACCAACACAUGAGGAUCACCCAUGUUUUGGGAAGGAUAUGGUACCUAUUUGGUACCAGAAGGUCCAGUUAAUG [salish99_SSNG3_r04_702] (Eterna round: R96, puzzle: Same State NG 3) | – | – | – | 51.4 nM | 29.5 nM | 41.7 nM
UGGUACAUGGGAGGAUAUCCUCAGGAGACAUGAGGAUCACCCAUGUAAUUUAAGCCGAAAGGCAUGGAGAAGGCCCAUGUACCU [JL SSNG1 3.80] (Eterna round: R96, puzzle: Same State NG 2) | – | – | – | 19.5 nM | 94.1 nM | 129 nM
AGGAAACAUGAGGAUCACCCAUGUAAAAAUAUGGGAGGAUAUGCGAAAAGAAACAAAGAAGCAGAAGGCCUAAGAA [75%, Ex5 sub 1, 7] (Eterna round: R96, puzzle: Same State 1) | – | – | – | – | 85.7 nM | –
GCGAAAGCGGUAGGAUAUCUAGGAUAUGGGAAAGACUAAGUCUGUAGGUCACCUAACCCAGAAGGAGAGAAGGACAGGGAAACC [pwkr ssNG2 2FMN + F9.34] (Eterna round: R96, puzzle: Same State NG 2) | – | – | – | 38.8 nM | 28.9 nM | 22.1 nM
AGCUAUUAAUCAGGAUAUAGUGACAUGAGGAUCACCCAUGUAUUGAUGAUUAAAUGUGGUCACUACUAGAAGGGAUUACUAACA [SameState NG2 #49] (Eterna round: R96, puzzle: Same State NG 2) | – | – | – | 37 nM | 51.4 nM | 67.1 nM
UAUGAACAUGAGGAUCACCCAUGUGGUACGAUCACAGGAUAUCACCUCGGACGUGCGAUGUGAGAAGGGUGAUGGU [Same State 1 - Mod of Vinnie Anrelari v.1] (puzzle: Same State 1) | – | 63.1 nM | – | – | – | –
CUGAGCGAUCAAGGAUAUCACGUCGAUUAGACGUGAGAAGGUGAUCCAUACAUGAGGAUCACCCAUGUAUAACAUGAAGCUCAG [SSNG1/8-A2] (Eterna round: R96, puzzle: Same State NG 1) | – | – | – | 414 nM | 507 nM | 861 nM
GCAGUGGCGGUAGGAUAUCUAGGAUAUGGGAAAGACUAAGUCUGUAGGUCACCUAACCCAGAAGGAGAGAAGGACCCUGUAAGG [pwkr ssNG2 2FMN + F9.21] (Eterna round: R96, puzzle: Same State NG 2) | – | – | – | 348 nM | 74.7 nM | 222 nM
AGAAAACAUGAGGAUCACCCAUGUAUAGUGAAUACAGGAUAUCACCGGCGGAAUAGCCAGUGAGAAGGGUGAUCGC [Aarusxe] (puzzle: Same State 1) | 71.5 nM | 11.5 nM | 41 nM | – | – | –
GGAGCCGGUACUGAGGAUAUUCAUAUUAAAACAUGAGGAUCACCCAUGUAGGCCAGAAGGCCUUGGGAGAAGGCAGGCCAGCUCG [Atgexeedri - 4] (Eterna round: R96, puzzle: Same State 2) | – | – | – | 24.7 nM | 177 nM | 268 nM
UAAAGAAAGCGAGGAUAUAGCCCAUGUGAAGAACUAGAAGGCGCAGACAUGAGGAUCACCCAUGUGUUCAUGAGGAGGAGGACA [Kawasakiqro] (Eterna round: R96, puzzle: Same State NG 1) | – | – | – | 88.6 nM | 51.9 nM | 57.7 nM
UGAAUACAUGAGGAUCACCCAUGUCAACGUAGUCGAGGAUAUGGGCAGCCGUGAGGCGUACCAGAAGGCGAAGAGG [Mat - Same State 1 - Mod of JL - D4] (puzzle: Same State 1) | 40.4 nM | 88.8 nM | 132 nM | – | – | –
UUGAUGAAUUAAGGAUAUCGAGUCGUCUAAUUAAACAUGAGGAUCACCCAUGUGGGUUGUGGUAUCGAGAAGGUAAAUUACUUA [JR_SSNG2_Sub098] (Eterna round: R96, puzzle: Same State NG 2) | – | – | – | 66.2 nM | 67.5 nM | 92.6 nM
GUGAAACAUGAGGAUCACCCAUGUAUGACGGGCACAGGAUAUCGUGGUUCGCUCAUACUACGAGAAGGGUGAAAAG [Inordien] (puzzle: Same State 1) | 20.5 nM | 18 nM | 18.9 nM | – | – | –
CUGAGCGAUCGAGGAUAUCACGUCGUUUAGACGUGAGAAGGCGAUCAUAACAUGAGGAUCACCCAUGUAUUACAUGAAGCUCAG [SSNG1/4-A3] (Eterna round: R96, puzzle: Same State NG 1) | – | – | – | 16.8 nM | 14.9 nM | 19.2 nM
UUUAAACAUGAGGAUCACCCAUGUUUUUUCAUGGGAGGAUAUCUGAGUUAAUUAUAUUAAGGAGAAGGCCUAUUUU [× ×•×ª×• ×ž×“×™× ×” × ×—×ª-01] (puzzle: Same State 1) | 102 nM | 38.6 nM | 75.9 nM | – | – | –
GCGAGGAUAUGCAGAGGAUCACCCUGUAGAAGGCGCAAAAGCGAGGAUAUGCAGAGGAUCACCCUGUAGAAGGCGCACUACUCU [pwkr ssNG3 DX 2xF5 +2xFMN.4] (Eterna round: R96, puzzle: Same State NG 3) | – | – | – | 153 nM | 161 nM | 221 nM
CUGAGAUGUCAAGGAUAUCACGUCGAUUAGACGUGAGAAGGUGAUCAGUACAUGAGGAUCACCCAUGUGUUACAUGGAACUCAG [Brourd's SSNG1/1-A2 mod 9] (Eterna round: R96, puzzle: Same State NG 1) | – | – | – | 868 nM | 102 nM | 571 nM
GGAGAGAAGUGAGGAUAUGCAUGGAAGACACAUGAGGAUCACCCAUGUGGGAGGGAGACCGGGAGGUAGAAGGCACUGGGAAGA [AK SSNG2-V2-25.1] (Eterna round: R96, puzzle: Same State NG 2) | – | – | – | 425 nM | 42.3 nM | 74.2 nM
